# Test results from patent publication US20140220159A1.
# Assays:
# [1] = target: HPV16 E6 (human papillomavirus type 16 (HPV16)) (UniProt P03126); assay: cell-based or functional assay
# [2] = target: MDM2 (UniProt Q00987); assay: cell-based or functional assay
# Sequence of MDM2 (Q00987 whole entry): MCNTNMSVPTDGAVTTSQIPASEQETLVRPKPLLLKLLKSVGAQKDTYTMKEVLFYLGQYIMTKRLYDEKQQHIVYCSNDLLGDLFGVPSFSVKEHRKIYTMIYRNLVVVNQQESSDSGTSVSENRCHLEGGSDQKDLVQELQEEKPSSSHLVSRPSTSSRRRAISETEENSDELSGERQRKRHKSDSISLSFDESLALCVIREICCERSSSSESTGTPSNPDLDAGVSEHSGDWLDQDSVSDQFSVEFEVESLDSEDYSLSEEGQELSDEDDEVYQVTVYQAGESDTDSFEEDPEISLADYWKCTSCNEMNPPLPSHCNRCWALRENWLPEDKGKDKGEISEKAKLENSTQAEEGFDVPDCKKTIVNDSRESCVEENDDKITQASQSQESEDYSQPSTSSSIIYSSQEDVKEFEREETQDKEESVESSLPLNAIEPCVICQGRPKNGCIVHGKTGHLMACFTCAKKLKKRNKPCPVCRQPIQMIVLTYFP
# Sequence of exogenous CH1 domain of p300 (pcDNA3.1/CH1) (Q09472 whole entry, the tested form may be a part): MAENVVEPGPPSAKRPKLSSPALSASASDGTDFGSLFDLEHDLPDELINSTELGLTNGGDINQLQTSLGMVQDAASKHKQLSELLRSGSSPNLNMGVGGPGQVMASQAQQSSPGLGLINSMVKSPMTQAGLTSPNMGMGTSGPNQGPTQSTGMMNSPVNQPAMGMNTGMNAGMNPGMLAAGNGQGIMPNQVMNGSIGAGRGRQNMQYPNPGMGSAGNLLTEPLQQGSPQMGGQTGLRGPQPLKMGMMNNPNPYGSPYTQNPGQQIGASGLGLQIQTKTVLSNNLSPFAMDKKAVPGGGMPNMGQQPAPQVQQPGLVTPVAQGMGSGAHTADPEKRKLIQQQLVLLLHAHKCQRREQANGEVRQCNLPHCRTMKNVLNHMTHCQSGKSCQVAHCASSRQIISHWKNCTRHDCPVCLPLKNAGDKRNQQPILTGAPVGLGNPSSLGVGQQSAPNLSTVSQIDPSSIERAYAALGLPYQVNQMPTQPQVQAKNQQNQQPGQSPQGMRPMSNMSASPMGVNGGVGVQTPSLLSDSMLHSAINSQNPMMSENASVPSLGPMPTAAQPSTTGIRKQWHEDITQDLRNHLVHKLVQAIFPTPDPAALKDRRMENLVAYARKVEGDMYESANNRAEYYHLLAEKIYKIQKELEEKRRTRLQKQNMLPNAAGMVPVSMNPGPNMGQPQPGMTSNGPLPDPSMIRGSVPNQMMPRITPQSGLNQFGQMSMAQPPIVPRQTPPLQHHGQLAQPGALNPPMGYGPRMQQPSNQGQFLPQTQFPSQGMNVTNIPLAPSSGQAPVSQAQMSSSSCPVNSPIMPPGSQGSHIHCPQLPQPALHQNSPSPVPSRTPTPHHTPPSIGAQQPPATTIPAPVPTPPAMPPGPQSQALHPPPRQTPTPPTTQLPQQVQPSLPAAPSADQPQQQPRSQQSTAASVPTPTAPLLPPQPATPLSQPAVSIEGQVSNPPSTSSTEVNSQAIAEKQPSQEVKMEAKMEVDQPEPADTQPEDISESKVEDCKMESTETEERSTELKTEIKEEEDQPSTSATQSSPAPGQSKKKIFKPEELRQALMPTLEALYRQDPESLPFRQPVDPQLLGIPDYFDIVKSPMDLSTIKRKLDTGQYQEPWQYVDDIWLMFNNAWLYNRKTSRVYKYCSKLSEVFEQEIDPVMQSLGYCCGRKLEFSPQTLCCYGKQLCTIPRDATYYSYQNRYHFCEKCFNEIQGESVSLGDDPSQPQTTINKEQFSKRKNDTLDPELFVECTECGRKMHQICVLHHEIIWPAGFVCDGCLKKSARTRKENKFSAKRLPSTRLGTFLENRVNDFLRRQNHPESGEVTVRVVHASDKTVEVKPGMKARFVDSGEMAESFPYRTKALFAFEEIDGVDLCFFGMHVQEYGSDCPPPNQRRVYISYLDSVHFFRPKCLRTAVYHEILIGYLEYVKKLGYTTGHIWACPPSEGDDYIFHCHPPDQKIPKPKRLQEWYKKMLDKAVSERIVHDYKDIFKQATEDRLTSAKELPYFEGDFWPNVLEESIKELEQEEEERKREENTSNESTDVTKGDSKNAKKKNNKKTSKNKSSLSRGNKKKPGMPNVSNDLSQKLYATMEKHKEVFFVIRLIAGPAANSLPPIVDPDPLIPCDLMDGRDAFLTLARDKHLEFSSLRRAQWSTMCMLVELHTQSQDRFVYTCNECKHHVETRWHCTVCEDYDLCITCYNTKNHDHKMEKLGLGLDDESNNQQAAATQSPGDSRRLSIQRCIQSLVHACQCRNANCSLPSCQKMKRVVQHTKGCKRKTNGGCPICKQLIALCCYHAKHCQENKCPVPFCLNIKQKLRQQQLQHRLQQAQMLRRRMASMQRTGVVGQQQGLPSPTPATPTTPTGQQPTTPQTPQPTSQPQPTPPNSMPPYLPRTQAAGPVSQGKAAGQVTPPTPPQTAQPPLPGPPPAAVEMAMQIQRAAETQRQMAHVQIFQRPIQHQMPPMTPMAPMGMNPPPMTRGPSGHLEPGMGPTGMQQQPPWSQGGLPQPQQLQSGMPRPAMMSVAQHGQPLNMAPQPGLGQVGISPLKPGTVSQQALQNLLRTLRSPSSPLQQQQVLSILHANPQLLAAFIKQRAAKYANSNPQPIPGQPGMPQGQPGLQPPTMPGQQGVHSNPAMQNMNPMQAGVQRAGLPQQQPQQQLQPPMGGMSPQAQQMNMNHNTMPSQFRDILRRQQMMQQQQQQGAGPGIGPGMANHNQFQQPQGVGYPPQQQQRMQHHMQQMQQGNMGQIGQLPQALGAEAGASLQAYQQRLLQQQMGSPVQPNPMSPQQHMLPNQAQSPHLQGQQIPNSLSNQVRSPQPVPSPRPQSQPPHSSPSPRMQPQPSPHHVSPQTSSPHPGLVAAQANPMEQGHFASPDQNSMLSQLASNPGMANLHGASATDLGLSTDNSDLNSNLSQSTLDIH
# Sequence of HPV16 E6 (human papillomavirus type 16 (HPV16)) (P03126 whole entry): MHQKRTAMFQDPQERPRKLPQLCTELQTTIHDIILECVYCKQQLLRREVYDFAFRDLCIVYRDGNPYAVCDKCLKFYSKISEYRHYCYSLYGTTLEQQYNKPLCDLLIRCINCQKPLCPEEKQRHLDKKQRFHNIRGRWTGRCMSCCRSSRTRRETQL
substance,measurement,setting,value
exogenous CH1 domain of p300 (pcDNA3.1/CH1) (from UniProt Q09472 332-417),"p53 transcription activity (luciferase reporter), UMSCC47/CH1 cells",[1],85%
same,"p53 transcription activity (luciferase reporter), UPCI:SCC090/CH1 cells",[1],50%
same,"p53 transcription activity (luciferase reporter), UMSCC74A/CH1 compared to UMSCC74A/empty cells",[2],68%
